Reference: patent publication US20100113339A1 (Ablynx, published 2010)

Target: T1, mouse serum albumin (mouse, UniProt P07724 25-608)
T1 construct: also called Mouse albumin
Assay: SPR Biacore 3000; mouse albumin against human/rhesus albumin as reference

T1 sequence (P07724 25-608 limits assumed): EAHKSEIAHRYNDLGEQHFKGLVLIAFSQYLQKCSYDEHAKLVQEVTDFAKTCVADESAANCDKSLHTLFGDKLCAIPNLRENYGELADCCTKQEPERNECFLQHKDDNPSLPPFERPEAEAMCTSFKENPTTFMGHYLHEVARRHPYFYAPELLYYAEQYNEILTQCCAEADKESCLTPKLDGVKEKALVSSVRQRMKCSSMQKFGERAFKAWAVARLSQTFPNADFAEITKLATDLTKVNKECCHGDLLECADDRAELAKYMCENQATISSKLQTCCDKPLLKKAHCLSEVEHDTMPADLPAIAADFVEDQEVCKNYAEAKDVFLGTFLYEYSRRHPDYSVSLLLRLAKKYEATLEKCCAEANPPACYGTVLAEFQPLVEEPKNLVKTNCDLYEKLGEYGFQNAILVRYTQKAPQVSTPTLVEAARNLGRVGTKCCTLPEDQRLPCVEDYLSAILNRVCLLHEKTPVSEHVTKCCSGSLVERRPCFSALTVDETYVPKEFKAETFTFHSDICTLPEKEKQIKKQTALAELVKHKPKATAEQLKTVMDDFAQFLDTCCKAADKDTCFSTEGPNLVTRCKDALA

B1: PMP6A8 (ALB2) (VHH)
VHH: AVQLVESGGGLVQGGGSLRLACAASERIFDLNLMGWYRQGPGNERELVATCITVGDSTNYADSVKGRFTISMDYTKQTVYLHMNSLRPEDTGLYYCKIRRTWHSELWGQGTQVTVSS
With B1 the “factor of difference in affinity for human/rhesus versus mouse serum albumin” value was 400 fold.
